For assay [1], the target named is r141-194_h (rat/human chimera) (UniProt P42533). As to the kind of experiment: live cell staining, flow cytometry, HEK293 cells expressing the construct. In general terms: A flow cytometer gives signals particle by particle.
Assay [2] has as its target h1-107_r (human/rat chimera). Described as above.
For assay [3], the target named is r141-194_h (rat/human chimera) (UniProt P42533). As to the kind of experiment: live cell staining, flow cytometry.
Assay [4] deals with h1-107_r (human/rat chimera). Description: live cell staining, flow cytometry.
h1-107_r (human/rat chimera), sequence (chain, as listed by the source mutant limits assumed): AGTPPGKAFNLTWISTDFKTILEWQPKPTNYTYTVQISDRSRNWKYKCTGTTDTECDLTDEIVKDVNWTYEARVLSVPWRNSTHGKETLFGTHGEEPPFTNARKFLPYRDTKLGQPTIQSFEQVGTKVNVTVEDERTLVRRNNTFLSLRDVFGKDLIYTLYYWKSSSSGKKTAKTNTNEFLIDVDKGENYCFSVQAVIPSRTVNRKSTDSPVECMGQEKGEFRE

On to 5G9 (antibody), for which the Percentage antibody binding to TF construct relative to hTF in assay [1] and in assay [2] was less than 50% each time. The results for the Percent antibody binding to TF construct relative to hTF in assay [3] and in assay [4] were 32% and 41%, respectively.
